In article PMC10630141, “OPUS-DSD: deep structural disentanglement for cryo-EM single-particle analysis” (Nature Methods, 2023):

Molecular target: the molecule itself
Assay: cryo-EM structure; NEXT complex (MTR4, RBM7, ZCCHC8) purified on poly-flag-tag beads and Superdex 200, cross-linked in a 10-30% glycerol gradient with 0.2% glutaraldehyde, dialysed into 20 mM HEPES pH 7.4, 150 mM NaCl; single-particle analysis, signal of one MTR4 helicase domain subtracted

B1: ZCCHC8 (natural protein, UniProt Q6NZY4 1-707, looked up)
chain: MAAEVYFGDLELFEPFDHPEESIPKPVHTRFKDDDGDEEDENGVGDAELRERLRQCEETIEQLRAENQELKRKLNILTRPSGILVNDTKLDGPILQILFMNNAISKQYHQEIEEFVSNLVKRFEEQQKNDVEKTSFNLLPQPSSIVLEEDHKVEESCAIKNNKEAFSVVGSVLYFTNFCLDKLGQPLLNENPQLSEGWEIPKYHQVFSHIVSLEGQEIQVKAKRPKPHCFNCGSEEHQMKDCPMPRNAARISEKRKEYMDACGEANNQNFQQRYHAEEVEERFGRFKPGVISEELQDALGVTDKSLPPFIYRMRQLGYPPGWLKEAELENSGLALYDGKDGTDGETEVGEIQQNKSVTYDLSKLVNYPGFNISTPRGIPDEWRIFGSIPMQACQQKDVFANYLTSNFQAPGVKSGNKRSSSHSSPGSPKKQKNESNSAGSPADMELDSDMEVPHGSQSSESFQFQPPLPPDTPPLPRGTPPPVFTPPLPKGTPPLTPSDSPQTRTASGAVDEDALTLEELEEQQRRIWAALEQAESVNSDSDVPVDTPLTGNSVASSPCPNELDLPVPEGKTSEKQTLDEPEVPEIFTKKSEAGHASSPDSEVTSLCQKEKAELAPVNTEGALLDNGSVVPNCDISNGGSQKLFPADTSPSTATKIHSPIPDMSKFATGITPFEFENMAESTGMYLRIRSLLKNSPRNQQKNKKASE
notes: ZCCHC8 of the nuclear exosome-targeting (NEXT) complex; The complex was cross-linked with glutaraldehyde before the grids were made; ZCCHC8 forms the dimeric centre of the complex; also called ZCCHC8 center; ZCCHC8 dimeric center; source: HEK293 GnTI- cells infected with recombinant baculovirus, overexpressed separately; cell pellets of the three NEXT proteins mixed, purified as the complex …
In the case of B1, the “stoichiometry N” value is reported as 2.
